Experimental data as given in patent EP4545559A2 (INSTITUTO BUTANTAN, dated 2025).
Like-named read-outs stand apart in the source and are kept apart here.

Tests used:
RBD WT (original Wuhan) [1] = target: T1, RBD WT (original Wuhan) (SARS-CoV-2, UniProt P0DTC2 319-541)
RBD WT (original Wuhan) [2] = target: T1, RBD WT (original Wuhan); remark: listed apart in the source
RBD WT (original Wuhan) [3] = target: T1, RBD WT (original Wuhan); remark: listed apart in the source
RBD WT (original Wuhan) [4] = target: T1, RBD WT (original Wuhan); remark: listed apart in the source
RBD WT (original Wuhan) [5] = target: T1, RBD WT (original Wuhan); remark: listed apart in the source

B1: Monoclonal antibody S.9.2.B8 (antibody, V domains shown)
VH: EVQLVETGGGLIQPGGSLRLSCAASGLIVSSNYMTWVRQAPGKGLEWVSVLYSGGTTYYADSVKGRVTISRDNSKNTLYLQVNSLTVADTAVYYCARDLADRGGMDVWGQGTTVTVSS
VL: SYELTQPPSVSVAPGQTARITCGGNNIGSQSVHWYQQKPGQAPVLVVYDDSDRPSGIPERFSGSKSGNMATLTISRVEAGDEADYYCQVWDSSSDHVVFGGGTKLTVL
notes: also called mAb S.9.2.B8
**Q.** For B1, which Kd (RBD WT (original Wuhan) [1]) is on record?
**A.** Its Kd is 1.99 nM.

B2: Monoclonal antibody S.9.4.C7 (antibody, V domains shown)
VH: QVQLVESGGGVVQPGRSLRLSCAASGFTFRNYAMHWVRQAPGKGLEWVTVISYDGSDKYYADSVKGRFTISRDNSKNTLYLQMNSLRAEDTAVYYCAKDPVGGYCSGGRCYFHSHYFDYWGQGTLVTVSS
VL: NFMLTQPHSVSESPGKTVTISCTRSSGSIASYYVQWYQQRPGSSPTTVISEDNQRPSGVPDRFSGSIDSSSNSASLTISGLKTEDEADYYCQSYDSNNHVIFGGGTKLTVL
notes: also called mAb S.9.4.C7
**Q.** For B2, which Kd (RBD WT (original Wuhan) [2]) is on record?
**A.** Its Kd is 0.0407 nM.

B3: Monoclonal antibody S.9.1.C9 (antibody, V domains shown)
VH: QVQLVESGGGVVQPGRSLGLSCAVSGFTFSNYGMDWVRQAPGKGLEWVAVTSYDGSNKYYADSVKGRFTISRDNSKNTLYLQMNSLRTEDTAVYYCAKHGGGPYCGGGTCYLAYFDYWGQGTLVTVSS
VL: DIQMTQSPSSLSASVRDRVTITCQASQDISKFLNWYQQKPGKAPKLLIYDASNLETGVPSRFSGSGSGTDFTFTISSLQPEDIATYYCQQYDNLPITFGQGTRLEIKR
notes: also called mAb S.9.1.C9
**Q.** For B3, which Kd (RBD WT (original Wuhan) [3]) is on record?
**A.** The Kd was 0.214 nM.

B4: Monoclonal antibody S.9.2.D7 (antibody, V domains shown)
VH: EVQLLESGGGLIQTGGSLRLSCAASGFTFSSYAMSWVRQAPGKGLEWVSVISDSGGSTYYADSVKGRLTISRDNSKNTLYVQMNSLRAEDTAVYYCAKGKGGIAAAGPAFLFDYWGQGTLVTVSS
VL: DIQMTQSPSLLSASAGDRVTISCRMSQGISSYLAWYQQKPGKAPELLISSASTLQSGVPSRFSGSGSGTDFTLTISYLQSEDFATYYCQQYYSFPTTFGGGTKVEIK
notes: also called mAb S.9.2.D7
**Q.** B4 was tested. Which Kd (RBD WT (original Wuhan) [4]) did it give?
**A.** Its Kd is 4.85 nM.

B5: Monoclonal antibody S.9.4.F4 (antibody, V domains shown)
VH: QVQLVESGGGVVQPGRSLRLSCAASGFTFSHYGMHWVRQAPGKGLEWVAVILYDGSNEYYADSVKGRFTISRDNSKNTLYLQMNSLRAEDTAVYYCAKGAGTYCSGGNCYVAYFDYWGQGTLVTVSS
VL: AIRMTQSPSSLSASVGDRVTITCQASQDISNYLNWYQQKPGKAPKLLIYDASNLETGVPSRFSGSGSGTDFTVTISSLQPEDFATYYCQQYDNLPLTFGGGTKVEIK
notes: also called mAb S.9.4.F4
**Q.** How did the Kd (RBD WT (original Wuhan) [5]) turn out when B5 was run?
**A.** The Kd was ~0.0336 nM.
